# Measured values reported in PMC12327846.
# Target: T1, DtxR (Corynebacterium glutamicum) (UniProt Q8NP95)
# T1 sequence: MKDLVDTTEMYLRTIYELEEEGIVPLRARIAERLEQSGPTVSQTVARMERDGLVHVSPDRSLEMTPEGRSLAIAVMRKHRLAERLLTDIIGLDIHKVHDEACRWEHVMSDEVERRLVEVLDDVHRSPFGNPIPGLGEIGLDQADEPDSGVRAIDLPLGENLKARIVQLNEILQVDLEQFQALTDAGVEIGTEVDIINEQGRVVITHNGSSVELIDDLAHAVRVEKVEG
# Assay: EMSA
# Conditions: EMSA: 31 nM DNA, DtxR at 0/50/200-fold (A) or 0/300/400-fold (B) excess; 50 mM Tris-HCl pH 7.5, 5 mM MgCl2 (rest of buffer not in material); 30 min, room …
row,Sequence,binding
1,AACCTGGGGGTTATATAAAAAACTTCACAAAAAGGTTGCATCCGCATCAACCGAAAGATAGTGTGTGTGAGGCAAGCCTAAGTAAACTTCTTCAAGGTTCGGGCTGGTTCCTTGAAGACGG (double strand) [xerC promoter 121 bp],binds
2,GAGTAGTAGCAGTGGGTATTTGCAAGCCTTTGACAAGTTACTAAACCGTGCTACCGAAACCCCTCGTGTTTAAATCTAGAAGTTTAAAGGGTGAAAACAGTCCATTACTTAAGCACCAATC (double strand) [NCgl0177 promoter 121 bp],no binding
3,GGACCTAAGCGTGTAAGATGGAAACGTCTGTATCGGATAAGTAGCGAGGAGTGTTCGTTAAAAGTGGCAAACACTGAACACAATTATGACGCTTCATCGATCACCATCCTTGAAGGTCTTG (double strand) [gyrB promoter 121 bp],no binding
4,GTGGCGCTTTGCCTGTGTTGCTTAGGCGGCGTTGAAAATGAACTACGAATGAAAAGTTCGGGAATTGTCTAATCCGTACTAAGCTGTCTACACAATGTCTACTTCAGTTACTTCACCAGC (double strand) [metH promoter 121 bp],binds
5,TAGTCGTATCAAAAAGTGCTCTGATCTTAACTTTGCCCTACCTAAATACATGACCCCACCACGACGGCCAGTACTAACGACAGAATCCACTAGCGAACCCATTTATTAACAAACATTGCAA (double strand) [NCgl2776 promoter 121 bp (primers named NCgl2766)],binds
6,TTTGACGTGCTTTTTTAGCACGCCATTAAGCTAAAAATAAGGTTAGGGTGCGTTATGTTTTCAGGTATCAAAAGGTGCTAATGCCTTTATTGTGTTTCGCATTGTCATTTACCACATGAAG (double strand) [cepA promoter 121 bp],binds
